This data set concerns the molecule itself. Description: […], in Tris-HCl buffer (10 mM Tris-HCl pH 8.0, 150 mM NaCl, 1 mM EDTA); […].

B1: MARV nucleoprotein (1–395), wild type (domain or fragment)
chain: MDLHSLLELGTKPTAPHVRNKKVILFDTNHQVSICNQIIDAINSGIDLGDLLEGGLLTLCVEHYYNSDKDKFNTSPVAKYLRDAGYEFDVIKNADATRFLDVSPNEPHYSPLILALKTLESTESQRGRIGLFLSFCSLFLPKLVVGDRASIEKALRQVTVHQEQGIVTYPNHWLTTGHMKVIFGILRSSFILKFVLIHQGVNLVTGHDAYDSIISNSVGQTRFSGLLIVKTVLEFILQKTDSGVTLHPLVRTSKVKNEVASFKQALSNLARHGEYAPFARVLNLSGINNLEHGLYPQLSAIALGVATAHGSTLAGVNVGEQYQQLREAAHDAEVKLQRRHEHQEIQAIAEDDEERKILEQFHLQKTEITHSQTLAVLSQKREKLARLAAEIENNI
In the case of B1, the binding result is recorded as “binds”.

The record behind these values is paper PMC8897395 (Nature Communications, 2022).
